Data as given in PMC9463536 (The Journal of Biological Chemistry, 2022).

B1: COP-2 (CpE Obstructing Protein 2), synthetic antigen-binding fragment (Fab, V domains shown)
VH: EVQLVESGGGLVQPGGSLRLSCAASGFNFSSSSIHWVRQAPGKGLEWVASISSYSGYTSYADSVKGRFTISADTSKNTAYLQMNSLRAEDTAVYYCARYWSWYNSSHYIYSALDYWGQGTLVTVSS
VL: DIQMTQSPSSLSASVGDRVTITCRASQSVSSAVAWYQQKPGKAPKLLIYSASSLYSGVPSRFSGSRSGTDFTLTISSLQPEDFATYYCQQSYEWAPVTFGQGTKVEIK
notes: also called sFab; source: E. coli BL21-Gold, purified (MabSelect SuRe, Resource S)
B2: COP-3 (CpE Obstructing Protein 3), synthetic antigen-binding fragment (Fab, V domains shown)
VH: EVQLVESGGGLVQPGGSLRLSCAASGFNFYSSSIHWVRQAPGKGLEWVAYISSYSGYTYYADSVKGRFTISADTSKNTAYLQMNSLRAEDTAVYYCARGYGYFDYNFSVGYALDYWGQGTLVTVSS
VL: DIQMTQSPSSLSASVGDRVTITCRASQSVSSAVAWYQQKPGKAPKLLIYSASSLYSGVPSRFSGSRSGTDFTLTISSLQPEDFATYYCQQSHPWYYPITFGQGTKVEIK
notes: as for B1

Experiments:
[1] = target: T1, cCpE-His10 (wild type) (Clostridium perfringens, UniProt P01558); test: BLI; conditions: both partners purified
T1 construct: not shown: His10, C-terminal, kept

[2] = target: T2, human claudin-4, untagged (human, UniProt O14493); test: SEC; conditions: both partners purified
T2 construct: also called hCLDN-4
T2 sequence (O14493 whole entry): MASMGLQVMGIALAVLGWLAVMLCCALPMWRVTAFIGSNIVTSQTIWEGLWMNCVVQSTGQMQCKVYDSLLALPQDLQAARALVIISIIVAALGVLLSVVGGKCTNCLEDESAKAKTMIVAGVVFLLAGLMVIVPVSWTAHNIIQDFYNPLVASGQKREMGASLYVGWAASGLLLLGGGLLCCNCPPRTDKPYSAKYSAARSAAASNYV

| Binder | Kd [1] [nM] | koff [1] [s⁻¹] | kon [1] [M⁻¹ s⁻¹] | binding result [2] |
| --- | --- | --- | --- | --- |
| B1 | 67.6 ± 11.7 | 0.00048 | 7200 | no binding |
| B2 | 138 ± 6.2 | 0.001 | 10000 | no binding |
